Reference: patent publication US20140341915A1 (DEUTSCHES KREBSFORSCHUNGSZENTRUM, published 2014)

Experiments:
[1] = biological target: T1, B7-H6-Ig-fusionprotein consisting of the extracellular domain of B7-H6 fused to an IgG1-Fc domain (human, UniProt Q68D85 25-267); assay: ELISA
T1 construct: Junction residues from restriction sites are not given; also called B7-H6-Ig-FP
T1 sequence: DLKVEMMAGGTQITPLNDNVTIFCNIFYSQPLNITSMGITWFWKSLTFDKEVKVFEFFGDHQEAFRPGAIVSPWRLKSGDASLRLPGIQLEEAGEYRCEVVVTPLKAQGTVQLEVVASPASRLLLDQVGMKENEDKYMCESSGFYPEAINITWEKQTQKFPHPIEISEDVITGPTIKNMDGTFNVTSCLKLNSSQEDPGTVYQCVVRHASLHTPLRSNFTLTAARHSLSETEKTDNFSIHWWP

[2] = biological target: T2, B7-H6 polypeptide on cells (BA/F3-B7-H6 transfectants; cell lines expressing B7-H6 endogenously) (human, UniProt Q68D85 25-454); assay: immunohistochemistry on acetone-fixed cytospins, mAb at 5 µg/ml
T2 construct: whole, on cells; The construct used for the BA/F3 transfectants is not described
T2 sequence (looked up): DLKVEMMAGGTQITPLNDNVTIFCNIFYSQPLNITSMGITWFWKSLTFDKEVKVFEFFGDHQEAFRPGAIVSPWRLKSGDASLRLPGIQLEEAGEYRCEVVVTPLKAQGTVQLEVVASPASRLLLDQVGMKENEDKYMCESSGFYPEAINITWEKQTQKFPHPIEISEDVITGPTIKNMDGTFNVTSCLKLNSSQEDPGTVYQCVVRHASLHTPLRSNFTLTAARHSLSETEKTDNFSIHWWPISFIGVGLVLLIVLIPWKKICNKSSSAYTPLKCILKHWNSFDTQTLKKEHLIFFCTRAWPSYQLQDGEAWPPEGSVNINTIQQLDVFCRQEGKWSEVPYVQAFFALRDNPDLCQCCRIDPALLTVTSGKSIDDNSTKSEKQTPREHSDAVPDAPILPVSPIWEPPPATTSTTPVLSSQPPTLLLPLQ
Protocol: Acetone-fixed cytospins of a 1:1 mixture of Ba/F3 and Ba/F3-B7-H6 cells were stained using the Dual Envision+System-HRP (Dako). After blocking endogenous peroxidase activity, cytospins were blocked with 10% goat serum and 0.1 mg/ml human
IgG. […] After incubation with 3,3′-diaminobenzidine (DAB) substrate solution, cell nuclei were counterstained with Hematoxylin and mounted cyotospins were analyzed by light microscopy.

binding result [1]: binds
binding result [2]: binds
B1: anti-B7-H6 monoclonal antibody (mAb) 1.18 (antibody, V domains shown)
VH: DVKLVESGGGLVKPGGSLKLSCAASGFTFSSYTMSWVRQTPEKRLEWVATINNGGSYTYYPDSVKGRFTISRDNAKNTLYLQMSSLKSEDTAIYYCYGYDPAWFAYWGQGTLVTVSA
VL: QAVVTQESALTTSPGETVTLTCRSSTGAVTTSNYANWVQEKPDHLFTGLIGGTNNRAPGVPARFSGSLIGDKAALTITGAQTEDEAIYFCALWYSNHWVFGGGTKLTVLG
